Measurements published in patent US20160222130A1 (Astellas, published 2016).
Where two headings read alike, the source gives them in different places. Blank lines part the entries; values can stand above or below the binder they belong to.

Legend:
[1] = target: T1, human Tie2 (on human Tie2-expressing cells) (human, UniProt Q02763 23-1124); assay: cell-based or functional assay
[2] = target: T2, recombinant human Tie2-Fc chimeric protein (R&D, 313-TI-100) (human, UniProt Q02763 23-745); assay: ELISA, Tie2-Fc coated, HRP/TMB absorbance at 450 nm
T2 construct: Bought reagent; Fc part of the bought chimera not given

[3] = target: T3, recombinant monkey Tie2-Fc chimeric protein (Sino Biological Inc., 90292-C02H) (monkey); assay: as above
T3 construct: Bought reagent

[4] = target: T1, human Tie2 (on human Tie2-expressing …); assay: cell-based or functional assay; remark: listed apart in the source
[5] = target: T1, human Tie2 (on human Tie2-expressing …); assay: cell-based or functional assay; remark: listed apart in the source
[6] = target: T1, human Tie2 (on human Tie2-expressing …); assay: cell-based or functional assay; remark: listed apart in the source

T1 sequence (Q02763 23-1124): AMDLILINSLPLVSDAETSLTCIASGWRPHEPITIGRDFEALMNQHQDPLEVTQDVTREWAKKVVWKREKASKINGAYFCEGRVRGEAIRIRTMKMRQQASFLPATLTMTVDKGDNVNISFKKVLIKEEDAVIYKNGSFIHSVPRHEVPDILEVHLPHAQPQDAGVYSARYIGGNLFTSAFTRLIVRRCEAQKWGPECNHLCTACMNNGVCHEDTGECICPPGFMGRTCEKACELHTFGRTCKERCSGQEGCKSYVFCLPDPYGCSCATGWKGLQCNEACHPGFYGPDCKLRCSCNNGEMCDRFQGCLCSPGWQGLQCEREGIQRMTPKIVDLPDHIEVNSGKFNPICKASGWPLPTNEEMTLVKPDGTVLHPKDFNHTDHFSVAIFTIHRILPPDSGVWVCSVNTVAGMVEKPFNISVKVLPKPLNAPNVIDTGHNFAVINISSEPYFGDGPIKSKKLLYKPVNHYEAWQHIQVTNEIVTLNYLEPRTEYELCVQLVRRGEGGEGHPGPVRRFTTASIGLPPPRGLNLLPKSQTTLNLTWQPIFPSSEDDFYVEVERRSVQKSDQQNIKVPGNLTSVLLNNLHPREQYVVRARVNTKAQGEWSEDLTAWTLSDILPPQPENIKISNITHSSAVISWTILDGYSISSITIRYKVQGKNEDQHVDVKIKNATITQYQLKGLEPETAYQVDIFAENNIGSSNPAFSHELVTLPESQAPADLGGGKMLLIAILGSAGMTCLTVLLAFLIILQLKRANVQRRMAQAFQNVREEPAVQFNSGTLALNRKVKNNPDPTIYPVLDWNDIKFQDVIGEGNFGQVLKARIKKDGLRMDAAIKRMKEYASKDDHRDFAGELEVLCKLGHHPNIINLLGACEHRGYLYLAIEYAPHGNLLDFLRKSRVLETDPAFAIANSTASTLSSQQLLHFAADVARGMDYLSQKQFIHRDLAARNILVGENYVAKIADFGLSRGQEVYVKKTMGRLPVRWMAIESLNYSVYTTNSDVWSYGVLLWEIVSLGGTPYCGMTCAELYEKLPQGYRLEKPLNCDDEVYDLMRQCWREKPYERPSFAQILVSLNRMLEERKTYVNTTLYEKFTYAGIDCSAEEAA
T2 sequence (Q02763 23-745, change not shown): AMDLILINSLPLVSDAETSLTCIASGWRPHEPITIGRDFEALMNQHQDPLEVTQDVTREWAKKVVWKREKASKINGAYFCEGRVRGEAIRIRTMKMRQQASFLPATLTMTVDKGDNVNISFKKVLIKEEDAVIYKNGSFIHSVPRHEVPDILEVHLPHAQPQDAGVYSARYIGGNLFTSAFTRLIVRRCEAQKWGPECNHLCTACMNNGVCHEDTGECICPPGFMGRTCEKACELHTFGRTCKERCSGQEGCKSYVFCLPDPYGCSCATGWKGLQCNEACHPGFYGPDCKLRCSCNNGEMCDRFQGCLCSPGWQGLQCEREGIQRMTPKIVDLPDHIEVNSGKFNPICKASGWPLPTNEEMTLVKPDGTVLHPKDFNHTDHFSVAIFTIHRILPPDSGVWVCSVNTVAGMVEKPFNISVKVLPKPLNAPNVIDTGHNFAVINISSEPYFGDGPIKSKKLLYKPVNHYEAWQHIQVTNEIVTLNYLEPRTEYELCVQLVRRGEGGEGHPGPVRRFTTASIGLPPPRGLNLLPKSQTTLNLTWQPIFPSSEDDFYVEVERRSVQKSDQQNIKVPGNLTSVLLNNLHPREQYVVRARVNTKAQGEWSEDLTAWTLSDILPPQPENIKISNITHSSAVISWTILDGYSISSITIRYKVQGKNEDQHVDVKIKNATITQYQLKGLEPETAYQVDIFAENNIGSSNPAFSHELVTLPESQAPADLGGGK

B3: TIE-1-Igγ1-WT (antibody, human IgG1, kappa)
heavy: not shown
light: DIQMTQSPSSLSASVGDRVTITCRSSQSLLHSHRYNYLDWYQQKPGKAPKLLIYLGSNRASGVPSRFSGSGSGTDFTLTISSVQPEDFATYYCMQTLQTPLTFGQGTKVEIKRTVAAPSVFIFPPSDEQLKSGTASVVCLLNNFYPREAKVQWKVDNALQSGNSQESVTEQDSKDSTYSLSSTLTLSKADYEKHKVYACEVTHQGLSSPVTKSFNRGEC
- EC50 value of anti-apoptotic activity, human Tie2-expressing BaF3 cell [5]: 0.0071 µg/mL

B4: TIE-1-Igγ1-I253A (antibody, human IgG1, kappa, L234A L235A)
heavy: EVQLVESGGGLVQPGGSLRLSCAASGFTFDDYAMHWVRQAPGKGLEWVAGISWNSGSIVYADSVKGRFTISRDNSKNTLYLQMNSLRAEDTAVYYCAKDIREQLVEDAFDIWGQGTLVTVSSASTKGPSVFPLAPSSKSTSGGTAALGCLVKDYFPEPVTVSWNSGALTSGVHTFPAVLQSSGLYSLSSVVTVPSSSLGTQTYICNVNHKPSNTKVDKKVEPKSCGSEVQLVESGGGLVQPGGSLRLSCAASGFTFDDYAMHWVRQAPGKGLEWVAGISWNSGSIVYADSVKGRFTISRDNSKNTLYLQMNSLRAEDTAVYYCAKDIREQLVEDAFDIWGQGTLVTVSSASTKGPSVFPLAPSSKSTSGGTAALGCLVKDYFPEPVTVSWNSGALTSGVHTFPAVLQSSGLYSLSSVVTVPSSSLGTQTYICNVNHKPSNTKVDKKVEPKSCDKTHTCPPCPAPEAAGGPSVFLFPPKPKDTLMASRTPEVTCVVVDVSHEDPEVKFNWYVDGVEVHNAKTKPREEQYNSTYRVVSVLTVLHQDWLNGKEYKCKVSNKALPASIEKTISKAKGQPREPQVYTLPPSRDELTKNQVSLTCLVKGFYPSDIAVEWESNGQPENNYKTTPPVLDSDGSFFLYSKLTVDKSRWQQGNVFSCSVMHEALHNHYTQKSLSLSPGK
light: DIQMTQSPSSLSASVGDRVTITCRSSQSLLHSHRYNYLDWYQQKPGKAPKLLIYLGSNRASGVPSRFSGSGSGTDFTLTISSVQPEDFATYYCMQTLQTPLTFGQGTKVEIKRTVAAPSVFIFPPSDEQLKSGTASVVCLLNNFYPREAKVQWKVDNALQSGNSQESVTEQDSKDSTYSLSSTLTLSKADYEKHKVYACEVTHQGLSSPVTKSFNRGEC
- EC50 value of anti-apoptotic activity, human Tie2-expressing BaF3 cell [6]: 0.00506 µg/mL

Further lines, results first:

- anti-apoptotic activity, human Tie2-expressing BaF3 cell (maximum, relative to Ang-1) [1]: ~60%
- EC50 [2]: 0.219 µg/mL
- EC50 [3]: 0.224 µg/mL
- EC50 value of anti-apoptotic activity, human Tie2-expressing BaF3 cell [4]: 0.0266 µg/mL
B1: murine monoclonal antibody 15B8 (antibody, V domains shown)
VH: QVQLQQPGVVLVMPGASVKLSCKASGYTFASYWMHWVKQRPGQGLEWIGEIDPSDSYRNYNQKFKGKATLTVDKSSSTVNMQLSSLTSEDSAVYYCAKTSGIGRAMDYWGQGTSVTVSS
VL: DIQMIQSPASLSASVGETVTITCRASENIYSFVTWYQQKQGKSPQLLVFNAKNLVEGVPSSFSGSGSGTQFSLKIDSLQPEDFGTYYCQHHYSIPYTFGGGTKLEMR

- EC50 value of anti-apoptotic activity, human Tie2-expressing BaF3 cell [5]: 0.0376 µg/mL
B2: fully human 2-16A2 (antibody, human IgG1, kappa, V domains shown)
VH: EVQLVESGGGLVQPGGSLRLSCAASGFTFDDYAMHWVRQAPGKGLEWVAGISWNSGSIVYADSVKGRFTISRDNSKNTLYLQMNSLRAEDTAVYYCAKDIREQLVEDAFDIWGQGTLVTVSS
VL: DIQMTQSPSSLSASVGDRVTITCRSSQSLLHSHRYNYLDWYQQKPGKAPKLLIYLGSNRASGVPSRFSGSGSGTDFTLTISSVQPEDFATYYCMQTLQTPLTFGQGTKVEIKR
